Experimental data taken from patent publication US20210230248A1, “Multivalent pharmacophores for high avidity and overexpressed-target specific binding and uses thereof” (priority 2020, published 2021).
pKd: −log10 of the molar value. “Also recorded” adds a separate entry of the source. Where no end group is shown, it is not given here.

Experiments:
[1] = target: T1, PD-L1 overexpressing SU-DHL-1 cells (Homo sapiens, UniProt Q9NZQ7); assay: Competitive binding assay on PD-L1 overexpressing SU-DHL-1 cells; details: antibody at ~33.3 nM, assuming linear relationship
T1 construct: endogenous in cells; host or cells: SU-DHL-1 cells
Method: PC3, a low PD-L1 expressing cell is used as a control.
PE-conjugated mouse anti-human PD-L1 antibody (Clone MIN1, eBioscience) at the final concentration of 0.5 μg/100 μL (˜33.3 nM) was mixed with 4-arm PEG-2K PD-1ecto or 6-arm PEG-3.4K PD-1ecto titrated from 50 nM to 1 nM in Stain Buffer. SU-DHL-1 cells (0.5×10^6 cells) were resuspended in each titration of reagent in a final volume of 100 μL per well. After incubation for 3 h on ice with occasional mixing, the cells were washed 3 times. The amount of anti-PD-L1 antibody bound to the cells was quantified by the fluorescence intensity of PE using flow cytometry.

[2] = system: H1299, SW480, HT-1080 and PC3 cells; assay: Cell adhesion assay on vitronectin coated plate; type: cell-based, human; details: four uPAR overexpressing cell lines; 3 h; various concentrations
Method: For adhesion of cancer cells to vitronectin, 96-well plate was coated overnight with vitronectin (Thermo Fisher Scientific) at 5 μg/mL in PBS at 4° C., 50 μL/well. The wells without coating were used as negative controls. The plate was then blocked with 3% MSD Blocking Buffer for 2 h at room temperature. Four uPAR overexpressing human cancer lines were used for the assay: non-small cell lung cancer line H1299, colorectal cancer line SW480, fibrosarcoma line HT-1080 and prostate cancer line PC3. The cells were detached from culture flasks by trypsin/EDTA, resuspended in complete culture medium in a 50 mL conical tube, and incubated for 1 h at 37° C. in 5% CO2 incubator to allow receptor recovery. Cells were then washed with serum-free medium and resuspended in DMEM medium with 0.5% BSA. 50,000 cells in 100 μL were plated into each well with various concentrations of 4-arm and 6-arm PEG-GFD pharmacophores, and uPAR blocking antibody, VIM5. The plates were incubated at 37° C. in 5% CO2 incubator for 3 h, and washed 4 times with PBS with 0.5% BSA. The number of adherent cells in each well was quantified by CellTiter-Glo (Promega).

[3] = target: T2, uPAR overexpressing Hela cells (Homo sapiens, UniProt Q03405); assay: Competitive binding assay on uPAR overexpressing Hela cells; details: ratio of IC50 values
T2 construct: endogenous in cells; host or cells: Hela cells
Excerpt: This assay is to measure the binding avidity of multivalent PEG-GFD pharmacophores to uPAR overexpressing Hela cells in comparison to uPA. Hela cells express uPAR but not uPA (Rabbani et al., Neoplasia, 2010, 12(10); 778-88), and therefore competition from endogenous uPA can be excluded.
Mouse anti-uPAR (Clone VIM5) is an uPAR blocking antibody (Sillaber et al., J Biol Chem, 1997, 272(12):7824-32). The potency of multivalent PEG-GFD pharmacophores and native uPA to compete against the antibody in binding to the overexpressed uPAR on the surface of Hela cells is measured and compared in this assay.
Hela cells were detached from culture flasks by trypsin/EDTA, resuspended in complete culture medium in a 50 mL conical tube, and incubated for 1 h at 37° C. in 5% CO2 incubator to allow receptor recovery. PE-conjugated anti-uPAR antibody (Clone VIM5; Invitrogen) at the final concentration of 0.5 μg/100 μL (33.33 nM) was mixed with titrated concentrations of 4-arm PEG-GFD and 6-arm PEG-GFD, and recombinant human uPA (Biolegend) in Stain Buffer. The mixture was added into Hela cells (500,000 cells in 100 μL; final density). […] The fluorescent intensity of PE on Hela cells was quantified by flow cytometry and plotted against the titration of 4-arm PEG-GFD, 6-arm PEG-GFD and uPA. The binding avidity of multivalent PEG-GFD pharmacophores relative to native uPA can be calculated.

[4] = system: H1299 and HT-1080 cells; assay: Chemotaxis assay (fibronectin coated transwell); type: cell-based, human; details: 10% FBS chemoattractant, 16 h
Method: Chemotaxis assay was performed using BD BioCoat 24-well transwell with 8 μm pore size filter which is coated with fibronectin (Corning). For the study, H1299 and HT-1080 cells were detached from culture flasks with trypsin/EDTA, and then the trypsin was deactivated by adding the complete medium. The cells were washed with serum-free medium twice and resuspended at the final density of 50,000 cells in 500 μL DMEM medium supplemented with 0.5% BSA. The cells were treated with multivalent pharmacophores and uPAR blocking antibody for 1 h at 37° C. in 5% CO2 incubator. 650 μL of DMEM with 10% FBS was used as chemoattractant and added into the lower chamber. Serum-free DMEM medium was used as a negative control, and no drug treatment well was considered as 100% migration. After placing the upper chamber into the lower chamber, 500 μL cell suspensions were added to the upper chamber. 4-arm PEG-GFD, 6-arm PEG-GFD and uPAR blocking antibody, VIM5, with various concentrations were added in both upper and lower chambers. The transwell was incubated at 37° C. in 5% CO2 incubator for 16 h. […] The number of cells migrated past the filter was quantify by reading the solution in plate reader after transferring into a white 96-well plates.

[5] = system: H1299 and HT-1080 cells; assay: Matrigel invasion assay; type: cell-based, human; details: 10 nM, 24 h
Method: The migration of cells through Matrigel indicates the ability of the cells to digest the extracellular matrix during the process of migration. The Matrigel invasion assay is similar to the chemotaxis assay above except that the 8 μm pore size filter is coated with Matrigel. BD BioCoat Matrigel Invasion Chamber (Corning) was used for the assay with H1299 and HT-1080 cells. 4-arm PEG-GFD, 6-arm PEG-GFD and the blocking antibody VIM5 were used at the concentration of 10 nM. After 24 h treatment, the Matrigel along with the cells remaining on the upper surface of filter in the upper chamber was scraped off with a cotton swab. The migrated cells were measured with CellTiter-Glo as described above.

[6] = target: T3, HT-1080 cells in which the overexpressed uPAR is occupied by endogenous uPA (Homo sapiens, UniProt Q03405); assay: Displacement of endogenous uPA from uPAR on HT-1080 cells; type: binding; details: various concentrations; 0.5-4 h on ice
T3 construct: endogenous in cells; host or cells: HT-1080 cells
Method: Human fibrosarcoma cell HT-1080 overexpresses both uPA and uPAR and the uPAR is occupied by the endogenous uPA. […] As a control, the competitive potency of uPAR blocking antibody (Clone VIM5) was also tested.
HT-1080 cells were plated in 96-well plate at 30,000 cells/well in 100 μL DMEM medium supplemented with 10% FBS. After overnight incubation, the culture medium was removed and 4-arm PEG-GFD, 6-arm PEG-GFD and mouse anti-uPAR antibody (Clone VIM5, Invitrogen) with various concentrations in Stain Buffer were added into each well. The cells were incubated on ice for 0.5, 1, 2, 3 and 4 h. Then, the cells were washed twice with cold PBS and fixed in 4% paraformaldehyde for 30 min. The plate was blocked with 3% MSD Blocking Buffer for 1 h and the cells were stained with mouse anti-human uPA catalytic domain antibody (Clone 204212; R&D Systems) to quantify the amount of endogenous uPA still associated with the cells. After 2 h incubation with the antibody, HRP-conjugated anti-mouse antibody was added for another hour of incubation. TMB was then added and followed by addition of stop solution. The plate was read at 450 nm absorbance to quantify the endogenous uPA.

[7] = target: T4, Human recombinant PD-L2 (Homo sapiens, UniProt Q9BQ51); assay: Binding to PD-L2 coated MSD plate; details: test items at 5 nM; plate coated at 40 nM; FIG. 4B
T4 construct: purchased Abcam
T4 sequence (Q9BQ51 20-273): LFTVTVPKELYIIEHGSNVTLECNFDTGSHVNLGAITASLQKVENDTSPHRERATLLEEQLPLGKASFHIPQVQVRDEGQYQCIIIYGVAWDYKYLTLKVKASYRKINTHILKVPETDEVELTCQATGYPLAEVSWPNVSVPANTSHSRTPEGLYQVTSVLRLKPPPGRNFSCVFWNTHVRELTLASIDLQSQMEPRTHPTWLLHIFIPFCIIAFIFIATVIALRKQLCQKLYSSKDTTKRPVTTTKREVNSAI
Method: Human recombinant PD-L1, PD-L2 and CD80 (Abcam) at the concentration of 40 nM were coated onto wells of 96-well MSD plate (small spot, 40 μL/well) overnight at 4° C., and then blocked with 3% MSD Blocking Buffer for 1 h. […] The plates were shaken for another 1 h at room temperature. After washing, SULFO-TAG anti-mouse IgG antibody was added into the plates. The plates were further incubated for 1 h and then washed and read after adding 1×MSD Read Buffer. SULFO-TAG anti-human IgG antibody was added into the plate of PD-L1 Fc chimera proteins. The wells without coating were used as background binding.

[8] = target: CD47 (Homo sapiens, UniProt Q08722); details: Ho et al. 2015; read-out: Kd CD47/SIRPα; cited from earlier work
CD47, sequence (Q08722 19-323): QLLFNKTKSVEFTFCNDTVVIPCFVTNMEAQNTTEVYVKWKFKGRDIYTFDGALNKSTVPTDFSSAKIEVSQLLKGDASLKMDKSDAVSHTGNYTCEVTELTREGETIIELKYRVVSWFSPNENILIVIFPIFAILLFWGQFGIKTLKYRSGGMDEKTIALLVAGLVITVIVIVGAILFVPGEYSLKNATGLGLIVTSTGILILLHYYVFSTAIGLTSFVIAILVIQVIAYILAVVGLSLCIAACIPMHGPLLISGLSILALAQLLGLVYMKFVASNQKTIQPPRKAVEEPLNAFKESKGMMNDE

T2 sequence (Q03405 23-335): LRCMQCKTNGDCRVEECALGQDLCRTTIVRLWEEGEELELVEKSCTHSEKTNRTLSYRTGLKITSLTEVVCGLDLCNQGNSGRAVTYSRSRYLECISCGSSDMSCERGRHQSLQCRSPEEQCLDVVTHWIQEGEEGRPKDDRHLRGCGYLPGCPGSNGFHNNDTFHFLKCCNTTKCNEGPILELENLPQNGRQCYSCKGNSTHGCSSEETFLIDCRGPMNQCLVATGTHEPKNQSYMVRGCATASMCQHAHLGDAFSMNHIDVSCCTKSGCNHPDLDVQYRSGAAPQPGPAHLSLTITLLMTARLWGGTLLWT
T1 sequence (Q9NZQ7 19-290): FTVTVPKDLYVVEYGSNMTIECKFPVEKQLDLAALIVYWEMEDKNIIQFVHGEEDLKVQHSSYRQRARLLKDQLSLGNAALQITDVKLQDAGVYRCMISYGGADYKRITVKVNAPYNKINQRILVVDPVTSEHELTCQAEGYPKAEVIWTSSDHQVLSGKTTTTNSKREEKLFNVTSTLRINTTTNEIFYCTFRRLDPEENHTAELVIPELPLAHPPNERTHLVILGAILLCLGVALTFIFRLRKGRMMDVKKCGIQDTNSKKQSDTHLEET
T3 sequence (Q03405 23-305 limits assumed): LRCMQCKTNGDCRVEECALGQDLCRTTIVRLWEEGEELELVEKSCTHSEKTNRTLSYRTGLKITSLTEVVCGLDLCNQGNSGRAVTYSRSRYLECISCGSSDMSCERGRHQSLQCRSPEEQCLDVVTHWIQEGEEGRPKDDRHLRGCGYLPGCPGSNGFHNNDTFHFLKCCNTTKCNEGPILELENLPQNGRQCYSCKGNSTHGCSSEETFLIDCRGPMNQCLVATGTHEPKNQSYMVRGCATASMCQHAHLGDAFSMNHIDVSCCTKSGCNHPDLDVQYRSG

fold increase in binding activity relative to native uPA [3] [fold]	Substance	inhibition of adhesion to vitronectin [2]	migration of cells to the lower chamber (chemotaxis) [4]	Matrigel invasion [5]	other results
	4-arm PEG-2K PD-1ecto: PD-1 ectodomain (aa. 21-169) site-specifically C-terminally conjugated to 4-arm PEG-2K, tetravalent pharmacophore				fold more potent than the PD-L1 blocking antibody [1]: about 2.6 fold
~31	4-arm PEG-GFD: growth factor-like domain of uPA (first 43 amino acids) conjugated to 4-arm PEG-2K (VPSNCDCLNGGTCVSNKYFSNIHWCNCPKKFGGQHCEIDKSKT; not fully specified (C-terminus); ends and bridges not checked; also: conjugated to 4-arm PEG-2K (site not given here))	inhibited the adhesion of all four cell lines to vitronectin dose-dependently	significantly reduced migration	significantly inhibited	
~85	6-arm PEG-GFD: growth factor-like domain of uPA conjugated to 6-arm PEG-3.4K (VPSNCDCLNGGTCVSNKYFSNIHWCNCPKKFGGQHCEIDKSKT; not fully specified (C-terminus); ends and bridges not checked; also: conjugated to 6-arm PEG-3.4K (site not given here))	inhibited the adhesion of all four cell lines to vitronectin dose-dependently; also recorded: more potent than 4-arm PEG-GFD	significantly reduced migration	significantly inhibited	displacement of bound uPA from uPAR [6]: generally more potent than 4-arm PEG-GFD
	PD-1 Fc chimera: recombinant human PD-1 Fc chimera protein (R&D Systems) [reference compound]				binding to PD-L2 coated plate [7]: bound
	SIRPα: signal-regulatory protein alpha, binds CD47 through its N-terminal IgV-like domain				pKd [8]: 6.30 to 6.52
